B1: Fab #4 comprising a modified heavy chain constant region (Fab, V domains shown)
VH: QVQLVQSGAEVKKPGASVKVSCKASGGAFTSSYMHWVRQAPGQGLEWMGIIEPTGASTLYAQRFQGRVTMTRDTSTSTVYMELSSLRSEDTAVYYCARTGIALPLGFDLWGQGTLVTVSS
VL: QSVLTQPPSVSAAPGQKVTISCSGSSSNIGNNYVSWYQQLPGTAPKLLIYDNNKRPSGIPDRFSGSKSGTSATLGITGLQTEDEADYYCAAWSTRFRWVFGGGTKLTVLG
B2: Fab #3 comprising a modified heavy chain constant region (Fab, V domains shown)
VH: QVQLVESGGGLVKPGGSLRLSCAASGFSFGDYYVSWIRQAPGKGLEWVSAIGGSGSAVQYAESVKGRFTISRDNAKNSLYLQMNSLRAEDTAVYYCARHYREFRWHYYYFDYWGQGTLVTVSS
VL: QSVLTQPPSVSGAPGQRVTISCTGSSSNIGAGYDVHWYQQLPGTAPKLLIYGNSNRPSGVPDRFSGSKSGTSASLAITGLQAEDEADYYCQSHDLGAHVWVFGGGTKLTVLG
B3: Fab #1 comprising a modified heavy chain constant region (Fab, V domains shown)
VH: QVQLVQSGAEVKKPGASVKVSCKASGYTFTSHYMHWVRQAPGQGLEWMGLIEPSEGETEYAQRFQGRVTMTRDTSTSTVYMELSSLRSEDTAVYYCARDSSRSYPLGFDIWGQGTLVTVSS
VL: QSVLTQPPSVSAAPGQKVTISCSGSSSNIGNNYVSWYQQLPGTAPKLLIYDNNKRPSGIPDRFSGSKSGTSATLGITGLQTEDEADYYCAAWDFRSSRWVFGGGTKLTVLG
B4: Fab #2 comprising a modified heavy chain constant region (Fab, V domains shown)
VH: QVQLVESGGGLVKPGGSLRLSCAASGFSFSDHYMSWIRQAPGKGLEWVSSVGSEGKFIDYAASVKGRFTISRDNAKNSLYLQMNSLRAEDTAVYYCARHYREFRWHYYYFDYWGQGTLVTVSS
VL: B2 VL
B5: Reference Control Antibody RefFab #1 (humanized GPVI antibody of WO2011073954A2, SANOFI) (Fab, V domains shown)
VH: EVQLLESGPGLVAPSGSLSITCTVSGFSLTGYGVNWVRQPPGKGLEWLGMIWGDGSTDYQSTLKSRLSISKDNSKSQVFLKMNSLRTDDTARYYCARDLPMDYWGLGTSVTVSS
VL: DIQMTQSPSSLSASVGGRVTITCKASQDINKYIAWYQHKPGKGPSLLIHYTSTLQPGVPSRFSGSGSGRDYSFSISNLQPEDIATYYCLQYANLLTFGGGTKLEIKR

Target: human GPVI on the cell surface of human platelets (human) (UniProt Q9HCN6)
Experiment: FACS on washed human platelets from PRP, Fab directly conjugated with PE, average + SD of 3 donors, signal given as GPVI molecules per cell

Row | Binder | EC50 (read off the curve) [µg/mL]
1 | B1 | 0.6
2 | B2 | 0.5

Target: human GPVI-Fc (isoform and haplotype not stated) used in the competition ELISA (human) (UniProt Q9HCN6)
Experiment: Competition ELISA (MSD): human GPVI-Fc preincubated with Fab, then on coated CRP-XL (competitor)

Row | Binder | IC50 [nM] | Maximum inhibition at 200 nM Fab [%]
3 | B3 | 10.9 | 63
4 | B1 | 13.2 | 47
5 | B4 | 8.3 | 100
6 | B2 | 8.7 | 100
7 | B5 | 10.6 | 100

Target: human GPVI-Fc (isoform and haplotype not stated) used in the competition ELISA (human) (UniProt Q9HCN6)
Experiment: Competition ELISA (MSD): human GPVI-Fc preincubated with Fab, then on coated rat-tail collagen (competitor)

Row | Binder | IC50 [nM] | Maximum inhibition at 200 nM Fab [%]
8 | B3 | 11 | 89
9 | B1 | 8.2 | 86
10 | B4 | 6.3 | 100
11 | B2 | 6.3 | 99
12 | B5 | 7 | 99

Target: human GPVI-Fc (isoform and haplotype not stated) used in the competition ELISA (human) (UniProt Q9HCN6)
Experiment: Competition ELISA (MSD): human GPVI-Fc preincubated with Fab, then on coated VitroCol (competitor)

Row | Binder | IC50 [nM] | Maximum inhibition at 200 nM Fab [%]
13 | B3 | 8.2 | 79
14 | B1 | 10.6 | 82
15 | B4 | 5.4 | 100
16 | B2 | 5.6 | 99
17 | B5 | 5.8 | 100

Target: human GPVI on the cell surface of human platelets (human) (UniProt Q9HCN6)
Experiment: FACS on washed human platelets from PRP (one exemplary donor), PE-conjugated detection antibody, median fluorescence

Row | Binder | EC50 (read off the curve) [µg/mL]
18 | B3 | 0.2
19 | B1 | 0.5
20 | B4 | 0.4
21 | B2 | 0.4
22 | B5 | 1

Source: patent publication US20210214435A1
